Reference: doi:10.1101/2022.09.22.509047, “Deciphering bacteriophage T5 host recognition mechanism and infection trigger” (bioRxiv, 2022)

Target: T1, E. coli iron ferrichrome transporter FhuA (E. coli, UniProt P06971 34-747)
T1 construct: FhuA, outer-membrane iron-ferrichrome transporter of E. coli; His-tag inserted in extracellular loop L5 after residue 405 (9 residues, not counted in the numbering); residues 1-17 disordered in the map; Lipopolysaccharide copurifies with FhuA; Purification is as in Flayhan et al, 2012; source: E. coli AW740, plasmid-encoded, grown with 100 µM dipyridine, purified; not shown: His6, internal (after …)
T1 sequence (looked up): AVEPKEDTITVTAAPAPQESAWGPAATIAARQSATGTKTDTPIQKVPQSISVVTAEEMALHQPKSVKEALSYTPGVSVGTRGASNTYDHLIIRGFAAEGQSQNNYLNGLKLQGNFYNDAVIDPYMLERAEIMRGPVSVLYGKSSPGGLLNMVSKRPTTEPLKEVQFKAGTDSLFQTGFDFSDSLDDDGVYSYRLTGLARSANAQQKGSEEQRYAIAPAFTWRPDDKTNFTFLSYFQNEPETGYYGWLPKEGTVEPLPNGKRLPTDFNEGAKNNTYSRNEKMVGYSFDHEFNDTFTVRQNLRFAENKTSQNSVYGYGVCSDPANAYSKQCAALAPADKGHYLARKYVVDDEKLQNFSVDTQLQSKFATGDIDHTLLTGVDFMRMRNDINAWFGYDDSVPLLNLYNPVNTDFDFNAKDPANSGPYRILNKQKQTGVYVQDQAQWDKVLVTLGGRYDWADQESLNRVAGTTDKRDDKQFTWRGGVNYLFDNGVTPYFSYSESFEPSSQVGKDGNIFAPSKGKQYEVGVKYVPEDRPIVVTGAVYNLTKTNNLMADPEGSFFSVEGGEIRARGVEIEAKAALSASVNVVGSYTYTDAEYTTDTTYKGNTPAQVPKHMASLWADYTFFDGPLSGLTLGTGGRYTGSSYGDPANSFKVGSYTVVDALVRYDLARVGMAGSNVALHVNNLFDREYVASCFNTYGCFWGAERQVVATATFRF
Assay: cryo-EM structure; FhuA-RBPpb5 complex formed from equimolar amounts of the two purified proteins; 20 mM Tris, 1.6% C10DAO, 4.3 mg/mL; 2.6 Å average resolution
Details: both partners purified

B1: bacteriophage T5 Receptor Binding Protein pb5 (natural protein)
chain: MSFFAGKLNNKSILSLRRGSGGDTNQHINPDSQTIFHSDMSHVIITETHSTGLRLDQGAGDYYWSEMPSRVTQLHNNDPNRVVLTEIEFSDGSRHMLSGMSMGVGAKAYGIINPQIMSQGGLKTQITASADLSLDVGYFNTGTSGTIPQKLRDGTGCQHMFGAFSGRRGFASSAMYLGGAALYKSAWSGSGYVVADAGTLTIPSDYVRHPGARNFGFNAIYVRGRSCNRVLYGMEGPNYTTGGAVQGASSSGALNFTYNPSNPESPKYSVGFARADPTNYAYWESMGDPNDSANGPIGIYSEHLGIYPSKITWYVTNLVYNGSGYNIDGGLFNGNDIKLSPREFIIKGVNVNNTSWKFINFIEKNFNVGNRADFRDVGCNLSKDSPSTGISGIATFGLPTTESNNAPSIKGGNVGGLHANVVSIYNFLPSASWYVSSNPPKIGNNYGDVWSENLLPLRLLGGSGSTILSGNIVFQGNGSVHVGTVGLDLNSSRNGAIVCTMEFIDDTWLSAGGIGCFNPTEMLSQGAEYGDSRFRIGGNTINKKLHQILSLPAGEYVPFFTIKGTVVNACKLQAAAYNPTPYWVSGLPGSVGQTGYYTLTYYMRNDGNNNISIWLDSSMSNIIGMKACLPNIKLIIQRLT
notes: 640 residues; residues 1-37, 333-352, 365-371 and 427-455 not traced in the map; In the functional rows pb5 stands on the phage T5 tail tip (T5st0), untagged; also called RBPpb5; source: E. coli BL21(DE3), pET-28 vector, 20 °C without induction, purified; not shown: His tag, C-terminal, kept
B1: binds.
